Each block holds one binder with its values, some of them ahead of it.
Experiments:
[1] = target: T1, ATOR-1017 (evunzekibart) (human); assay: BLI; Octet RED96; antibodies captured on FABG2 biosensor tips, recombinant Fcγ receptors in solution at suitable concentration ranges; association and dissociation at physiological pH; conditions: both partners purified
T1 construct: as the VH of Wm14, which is in PDB 8OZ3 (amino acids 2-118 modelled); human IgG4 heavy chain constant region, S228P stabilised; as the VL of Wm14, which is in PDB 8OZ3 (amino acids 2-110 modelled); light chain constant region; IgG4 (S228P)

[2] = target: T1, ATOR-1017 (evunzekibart); assay: BLI; Octet RED96; antibodies captured on FABG2 biosensor tips, recombinant FcRn in solution; association studied at physiological pH, dissociation at pH6; conditions: both partners purified
[3] = target: T2, human CD137-His (Homo sapiens, UniProt Q07011); assay: BLI; Octet Red96 (ForteBio); who was immobilised not stated; conditions: both partners purified
T2 construct: human 4-1BB (CD137, TNFRSF9), recombinant His-tagged protein from Acro; also called human 4-1BB; TNFRSF9; source: bought: Acro

[4] = target: T3, cynomolgus 4-1BB/TNFRSF9-His (Macaca fascicularis, UniProt A9YYE7); assay: as above; conditions: both partners purified
T3 construct: cynomolgus 4-1BB (TNFRSF9), recombinant His-tagged protein from Acro; source: bought: Acro

[5] = target: T4, human 4-1BB expressed on CHO-K1 cells (human, UniProt Q07011); assay: flow cytometry on cells; CHO-K1 cells stably expressing human or cynomolgus 4-1BB incubated with serially diluted ATOR-1017; detected with goat anti-hIg Fc-PE; MFI; conditions: one partner purified
T4 construct: human 4-1BB (CD137, TNFRSF9) from a gene in pcDNA3.1 (GenScript); also called CHO-hu4-1BB; hu4-1BB-CHO; source: CHO-K1, stably transfected (pcDNA3.1), on cells

[6] = target: T5, cynomolgus 4-1BB expressed on CHO-K1 cells (Macaca fascicularis, UniProt A9YYE7); assay: as above; conditions: one partner purified
T5 construct: cynomolgus 4-1BB (TNFRSF9) from a gene in pcDNA3.1 (GenScript); also called CHO-cy4-1BB; cy4-1BB-CHO; source: CHO-K1, stably transfected (pcDNA3.1), on cells

T2 sequence (Q07011 24-186): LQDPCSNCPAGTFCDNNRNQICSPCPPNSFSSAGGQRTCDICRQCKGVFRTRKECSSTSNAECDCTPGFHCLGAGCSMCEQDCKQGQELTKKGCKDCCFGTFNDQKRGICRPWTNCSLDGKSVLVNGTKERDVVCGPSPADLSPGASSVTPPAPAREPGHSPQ
T4 sequence (Q07011 24-255): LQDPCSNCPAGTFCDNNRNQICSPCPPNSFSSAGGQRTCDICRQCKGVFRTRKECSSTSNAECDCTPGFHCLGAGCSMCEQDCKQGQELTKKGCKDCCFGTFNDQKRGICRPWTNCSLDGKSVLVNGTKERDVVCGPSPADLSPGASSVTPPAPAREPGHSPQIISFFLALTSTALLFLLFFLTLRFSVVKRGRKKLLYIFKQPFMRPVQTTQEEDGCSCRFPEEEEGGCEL

B1: mouse FcγRIIb (receptor)
chain: THDLPKAVVKLEPPWIQVLKEDTVTLTCEGTHNPGNSSTQWFHNGRSIRSQVQASYTFKATVNDSGEYRCQMEQTRLSDPVDLGVISDWLLLQTPQLVFLEGETITLRCHSWRNKLLNRISFFHNEKSVRYHHYSSNFSIPKANHSHSGDYYCKGSLGRTLHQSKPVTITVQGPKSSRSLP
modifications: soluble ectodomain assumed for BLI
Kd [1]: 0.3 µM

B2: mouse FcγRIII (receptor)
chain: ALPKAVVKLDPPWIQVLKEDMVTLMCEGTHNPGNSSTQWFHNGRSIRSQVQASYTFKATVNDSGEYRCQMEQTRLSDPVDLGVISDWLLLQTPQRVFLEGETITLRCHSWRNKLLNRISFFHNEKSVRYHHYKSNFSIPKANHSHSGDYYCKGSLGSTQHQSKPVTITVQDPATTSSISLVWYHT
modifications: soluble ectodomain assumed for BLI
Kd [1]: 0.1 µM

B5: mouse FcγRIV (receptor)
chain: GLQKAVVNLDPKWVRVLEEDSVTLRCQGTFSPEDNSIKWFHNESLIPHQDANYVIQSARVKDSGMYRCQTALSTISDPVQLEVHMGWLLLQTTKWLFQEGDPIHLRCHSWQNRPVRKVTYLQNGKGKKYFHENSELLIPKATHNDSGSYFCRGLIGHNNKSSASFRISLGDPGSPSMFPPWHQ
modifications: soluble ectodomain assumed for BLI
Kd [1]: 0.4 µM

Now from value to binder:

Kd [2]: 0.2 µM
B3: mouse FcRn (receptor)
chain 1: SETRPPLMYHLTAVSNPSTGLPSFWATGWLGPQQYLTYNSLRQEADPCGAWMWENQVSWYWEKETTDLKSKEQLFLEALKTLEKILNGTYTLQGLLGCELASDNSSVPTAVFALNGEEFMKFNPRIGNWTGEWPETEIVANLWMKQPDAARKESEFLLNSCPERLLGHLERGRRNLEWKEPPSMRLKARPGNSGSSVLTCAAFSFYPPELKFRFLRNGLASGSGNCSTGPNGDGSFHAWSLLEVKRGDEHHYQCQVEHEGLAQPLTVDLDSSARSS
chain 2: IQKTPQIQVYSRHPPENGKPNILNCYVTQFHPPHIEIQMLKNGKKIPKVEMSDMSFSKDWSFYILAHTEFTPTETDTYACRVKHASMAEPKTVYWDRDM
modifications: soluble Fcgrt/B2m heterodimer assumed by convention; B2m not given

Kd [3]: 0.0001 µM | Kd [4]: 0.0002 µM | EC50 [5]: 0.0005 µM | EC50 [6]: 0.0005 µM
B4: ATOR-1017 (evunzekibart) (antibody, V domains shown)
VH: EVQLLESGGGLVQPGGSLRLSCAASGFNFGYSYMSWVRQAPGKGLEWVSSIGSTSSHTYYADSVKGRFTISRDNSKNTLYLQMNSLRAEDTAVYYCARVYSSPGIDYWGQGTLVTVSS
VL: DIQMTQSPSSLSASVGDRVTITCRASQSIGSTLNWYQQKPGKAPKLLIYGASSLQSGVPSRFSGSGSGTDFTLTISSLQPEDFATYYCQQYYTWVPFTFGQGTKLEIK
notes: the variable domains stand in the scFv of PDB 8OZ3 (heavy chain amino acids 2-118 modelled); human IgG4 constant part, S228P stabilized; the variable domains stand in the scFv of PDB 8OZ3 (light chain amino acids 2-110 modelled); light chain constant domain; IgG4 (S228P); variable domains from the human scFv library ALLIGATOR-GOLD, optimized
